From publication PMC12549904 (Communications Biology, 2025)

Biological target: Biotinylated RpoS (S. Typhimurium ATCC 14028S, UniProt D0ZVL4 1-330, biotin (EZ-Link-Biotin; sites not stated))
Test: BLI

Chain of Biotinylated RpoS (D0ZVL4 whole entry): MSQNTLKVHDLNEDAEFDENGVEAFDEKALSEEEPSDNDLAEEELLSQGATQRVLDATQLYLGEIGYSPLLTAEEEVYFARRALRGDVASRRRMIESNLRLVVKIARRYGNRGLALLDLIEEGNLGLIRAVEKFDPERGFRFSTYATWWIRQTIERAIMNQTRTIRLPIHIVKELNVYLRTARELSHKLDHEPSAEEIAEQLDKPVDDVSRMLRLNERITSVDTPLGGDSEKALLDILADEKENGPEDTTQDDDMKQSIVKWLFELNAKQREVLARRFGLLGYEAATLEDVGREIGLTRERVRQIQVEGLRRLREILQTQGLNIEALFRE

B1: MicN (purified, His-tag cleaved) (natural protein, S. Typhimurium ATCC 14028S)
chain: MKEGFYWIQHNGRVQVAYYTHGVTEDLETGQTIIGVWHLTQGDDICHNGEAEILAGPLEPPI
Kd: 43.6 nM
